# Results taken from patent US6833355 (HANSA MEDICAL, dated 2004).
# B1: COOH-terminal fragment of NPM, in vitro translated and 35S-methionine-labelled (other)
# chain: GSKVPQKKVKLAADEDDDDDDEEDDDEDDDDDDFDDEEAEEKAPVKKSIRDTPAKNAQKSNQNGKDSKPSSTPRSKGQESFKKQEKTPKTPKGPSSVEDIKAKMQASIEKGGSLPKVEAKFINYVKNCFRMTDQEAIQDLWQWRKSL
# modifications: 35S-methionine label
# notes: domain: COOH-terminal half; also called COOH-terminal peptide; COOH-terminal half of NPM
# B2: protein H of Streptococcus pyogenes, COOH-terminally truncated fragment expressed by and purified from E. coli (305 amino acids) (other)
# chain: EGAKIDWQEEYKKLDEDNAKLVEVVETTSLENEKLKSENEENKKNLDKLSKENQGKLEKLELDYLKKLDHEHKEHQKEQQEQEERQKNQEQLERKYQREVEKRYQEQLQKQQQLETEKQISEASRKSLSRDLEASRAAKKDLEAEHQKLEAEHQKLKEDKQISDASRQGLSRDLEASRAAKKELEANHQKLEAEHQKLKEDKQISDASRQGLSRDLEASRAAKKELEANHQKLEAEAKALKEQLAKQAEELAKLRAGKASDSQTPDTKPGNKAVPGKGQAPQAGTKPNQNKAPMKETKRQLPSTG
# notes: 42-346 is the same stretch counted from the first Met of the entry; Depending on the assay, protein H was coupled to CNBr-Sepharose, labelled with 125I (Bolton-Hunter), biotinylated or unlabelled; also called recombinant protein H; soluble protein H
# Legend:
# [1] = target: B2; experiment: Affinity chromatography of the 35S-labelled in vitro translated peptide on protein H-Sepharose, then SDS-PAGE and autoradiography
# [2] = target: actin from porcine heart (Sigma) (porcine, UniProt B6VNT8 3-377); experiment: SPR (BIACORE X), protein H over immobilised actin; mean ± SD of three experiments
Binder,binding result [1],Ka [2],Kd [2],koff [2],kon [2]
B1,no binding,,,,
B2,,1.7e+06 M⁻¹,600 nM,0.0015 s⁻¹,2500 M⁻¹ s⁻¹
